Laboratory results reported in US20230119254A1, “SYNERGISTIC AND TARGETING COMPOSITIONS FOR TREATMENT OF ARTERIAL AND VENOUS THROMBOSIS” (AstraZeneca AB, priority 2020, published 2023).
“Also recorded” adds a separate entry of the source. Like-named read-outs stand apart in the source and are kept apart here.

Legend:
arterial thrombosis = assay: Electrical injury model (EIM) of arterial thrombosis in rabbits; format: in vivo, rabbit
Protocol: Rabbits were randomized into the following eleven groups with the treatments initiated 30 min before electrical injury.
Electrical injury generated occlusion in 60% of the rabbits treated with saline within 2 h. Average thrombosis weight was 7.8 mg.

[1] = comparison value for annexin V; cited from earlier work
[2] = system: thrombin generation in human platelet rich plasma; assay: Thrombin generation by calibrated automated thrombography (CAT) in ADP-activated human PRP; format: cell-based; conditions: for peak thrombin concentration / time to peak thrombin: 20 uM ADP-activated human platelets, equal molar concentrations
Protocol: Shown are thrombograms of nanomolar thrombin that were generated in human platelet rich plasma activated with […].
Thrombin generation in citrated human platelet rich plasma (PRP) was quantified by calibrated automated thrombography (CAT) using the Thrombinoscope system (Synapse), according to methods developed by Hemker et al. Aliquots of PRP were incubated with agents for 15 min at room temperature, and then for 5 min at 37° C. in wells of 96-well plates. Thrombin generation was initiated by addition of 0.5 pM tissue factor and CaCl2 to 16.7 mM and monitored in a microtiter plate fluorometer (Fluoroskan Ascent, Thermo Electron Corp., Vantaa, Finland). Thrombograms (nM thrombin generated vs. time) were generated using the Thrombinoscope software, as were key thrombin generation parameters: lag time to onset of thrombin generation (min), peak thrombin concentration (nM), time to peak thrombin (min), and endogenous thrombin potential (ETP; integrated area under the thrombogram curve).
The effects of APT102, annexin V, APT102+annexin V, and APT402 at equal molar concentrations on thrombin generation from 20 uM ADP-activated human platelets were compared using CAT assays (FIG. 3). […] These features were mimicked by APT402.

[3] = rabbit, in vivo, iv, 0.2 mg/kg
[4] = system: rabbit platelet rich plasma; assay: ADP-induced platelet aggregation in rabbit PRP during and after bolus plus infusion; format: in vivo; conditions: for ADP-induced (50 uM) platelet aggregation in rabbit PRP: 0.2 mg/kg bolus then 24 μg/kg/min for 120 min
[5] = system: human platelet-rich plasma (PRP); assay: ADP-induced human platelet aggregation in platelet-rich plasma; format: cell-based; conditions: ADP-activated, light transmission, 6 min
Protocol: FIGS. 1A and 1B show the effect of apyrase APT102 used as such and of a fusion protein thereof, APT402, on platelet aggregation in an ex vivo reaction mixture comprising human platelet-rich plasma (PRP) activated with 20 μM ADP. […] X axis is the assay time (6 min duration), Y axis is the light transmission. […] Arrows indicate addition of ADP and apyrases.
The inhibitory activity on FX activation was assayed using peripheral blood mononuclear cells (PBMC) purified from normal human donors and anesthetized rabbits by standard methods. […] As expected, APT102 had no effect on PBMC pro-coagulant activity.

[6] = Pharmacokinetics (ADPase activity) after single IV bolus in rabbits
[7] = system: IVC fibrosis (collagen deposition); assay: Chronic murine electrolytic injury model (EIM) of DVT, fibrosis; format: in vivo; conditions: mice, 1.0 mg/kg ip bolus daily for 14 days
Source text: In a chronic fibrotic study, mice were randomized and blinded into the following groups (n=5-12/group).
Collagen deposition was stained with Masson's trichrome 14 days post DVT induction.

[8] = Haemostasis parameters in healthy rabbits with bolus plus infusion; format: in vivo, rabbit
IVC thrombosis = format: in vivo, mice; conditions: for reduction of thrombus weight: mice
Protocol: An electrical injury model of venous thrombosis was used for acute study (Diaz J A et al. Thromb Haemost. 104: 366-375, 2010.
Mice were randomized into the following four groups (n=10/group).
The EIM consistently generated IVC thrombosis in all mice with the mean thrombus weight of 22.5 mg. Thrombus weight, BT, APTT and TCT were measured 48 h post DVT induction.

platelet aggregation = assay: Ex vivo ADP-induced platelet aggregation after single IV bolus in rabbits; conditions: rabbit, 0.40 mg/kg IV bolus
[9] = Malachite green assay of enzymatic kinetic parameters; format: biochemical
[10] = rabbit, in vivo, iv, 0.4 mg/kg
[11] = system: thrombotic sites of injured arteries; conditions: rabbit, in vivo
Protocol: A. APT402 was conjugated to the fluorescent dye (LS288); B. Fluorescent intensity in the injured artery of the rabbit treated with APT402 at 0.2 mg/kg bolus followed by 12 mg/kg/min for 120 min. Each bar represents the mean of 3 readings. C.
A near infra-red (NIR) fluorescent dye (LS288, Ex/Em 773/793) in methanol was conjugated to the functional amines of APT402 (˜1:1). […] For in vivo imaging of the thrombus by fluorescent molecular tomography (FMT), a custom built, fiber-based, portable, video-rate system was used as described (CITE).

[12] = PK (ELISA) with bolus plus continuous IV infusion in rabbits; conditions: rabbit, bolus plus 120 min infusion; significantly decreased 60 min after discontinuation
thrombin generation = assay: Thrombin generation during and after bolus plus infusion in rabbits; format: in vivo, rabbit; conditions: for thrombin generation: 0.2 mg/kg bolus then 24 μg/kg/min for 120 min
[13] = rabbit EIM, group doses of the 2nd table
[14] = rabbit, bolus plus 120 min infusion, significantly decreased 60 min after discontinuation

CC[C@H](C)[C@H](NC(=O)[C@H](CCC(=O)O)NC(=O)[C@H](CCC(=O)O)NC(=O)[C@H](Cc1ccccc1)NC(=O)[C@H](CC(=O)O)NC(=O)CNC(=O)[C@H](CC(N)=O)NC(=O)CNC(=O)CNC(=O)CNC(=O)CNC(=O)[C@@H]1CCCN1C(=O)[C@H](CCCNC(=N)N)NC(=O)[C@@H]1CCCN1C(=O)[C@H](N)Cc1ccccc1)C(=O)N1CCC[C@H]1C(=O)N[C@@H](CCC(=O)O)C(=O)N[C@@H](CCC(=O)O)C(=O)N[C@@H](Cc1ccc(O)cc1)C(=O)N[C@@H](CC(C)C)C(=O)O [bivalirudin, Bivalirudin, reference compound]
partial thromboplastin time (arterial thrombosis; [13]): increased | prothrombin time (arterial thrombosis; [13]): increased | bleeding time (BT) (arterial thrombosis; rabbit EIM, group doses of the 2nd table, BT measurement ceiling 5 min): prolonged

COC(=O)[C@H](c1ccccc1Cl)N1CCc2sccc2C1 [clopidogrel, Clopidogrel, reference compound]
bleeding time (BT) (arterial thrombosis; rabbit, in vivo): prolonged

CCCSc1nc(N[C@@H]2C[C@H]2c2ccc(F)c(F)c2)c2nnn([C@@H]3C[C@H](OCCO)[C@@H](O)[C@H]3O)c2n1 [ticagrelor, reference compound]
occlusion within 2 h (arterial thrombosis; rabbit EIM, ticagrelor 10 mg/kg oral, bivalirudin 5 mg/kg IV bolus then 5 mg/kg/h): completely prevented occlusion | bleeding time (BT) (arterial thrombosis; rabbit, in vivo): prolonged | partial thromboplastin time (arterial thrombosis; rabbit, in vivo): increased

annexin V: protein that binds phosphatidyl serine on activated platelets in competition with prothrombinase complex
distribution half-life [1]: 5 min | elimination half-life [1]: 20 min | peak thrombin concentration [2]: modestly decreasing | time to peak thrombin [2]: significantly increased

B1: APT402: fusion protein of apyrase APT102, 20 amino acid linker and annexin V (SEQ ID NO: 7-10) (protein)
chain: MMSFVSLLLVGILFHATQADAPEVLPPGLKYGIVLDAGSSGTRVYVYQWPAEKENNTGVVSQTFKCSVKGSGISSYGNNPQDVPRAFEECMQKVKGQVPSHLHGSTPIHLGATAGMRLLRLQNETAANEVLESIQSYFKSQPFDFRGAQIISGQEEGVYGWITANYLMGNFLEKNLWHMWVHPHGVETTGALDLGGASTQISFVAGEKMDLNTSDIMQVSLYGYVYTLYTHSFQCYGRNEAEKKFLAMLLQNSPTKNHLTNPCYPRDYSISFTMGHVFDSLCTVDQRPESYNPNDVITFEGTGDPSLCKEKVASIFDFKACHDQETCSFDGVYQPKIKGPFVAFAGFYYTASALNLSGSFSLDTFNSSTWNFCSQNWSQLPLLLPKFDEVYARSYCFSANYIYHLFVNGYKFTEETWPQIHFEKEVGNSSIAWSLGYMLSLTNQIPAESPLIRLPIEPPVGSTSGGSTSGGSTSGSGATIAQVLRGTVTDFPGFDERADAETLRKAMKGLGTDEESILTLLTSRSNAQRQEISAAFKTLFGRDLLDDLKSELTGKFEKLIVALMKPSRLYDAYELKHALKGAGTNEKVLTEIIASRTPEELRAIKQVYEEEYGSSLEDDVVGDTSGYYQRMLVVLLQANRDPDAGIDEAQVEQDAQALFQAGELKWGTDEEKFITIFGTRSVSHLRKVFDKYMTISGFQIEETIDRETSGNLEQLLLAVVKSIRSIPAYLAETLYYAMKGAGTDDHTLIRVMVSRSEIDLFNIRKEFRKNFATSLYSMIKGDTSGDYKKALLLLCGEDD
modifications: CDS (1)..(2397)
time by which detectable in the plasma after administration (ELISA) [3]: ≤ 30 min | thrombus weight compared with any other treatments (arterial thrombosis; rabbit EIM, 24 ug/kg/min): lowest thrombus weight | occlusion within 2 h (arterial thrombosis; rabbit EIM, 0.2 mg/kg IV bolus then 12 ug/kg/min): completely prevented occlusion | occlusion within 2 h (arterial thrombosis; rabbit EIM, 0.2 mg/kg IV bolus then 24 ug/kg/min): completely prevented occlusion | thrombosis weight (arterial thrombosis; rabbit EIM, infusion 4, 12, 24 μg/kg/min): dose-dependently reduced | bleeding time (BT) (arterial thrombosis; rabbit, in vivo): did not affect | blood pressure (mean arterial pressure) (arterial thrombosis; rabbit, in vivo): did not affect | heart rate (arterial thrombosis; rabbit, in vivo): did not affect | partial thromboplastin time (arterial thrombosis; rabbit, in vivo): did not affect | prothrombin time (arterial thrombosis; rabbit, in vivo): did not affect | ADP-induced (50 uM) platelet aggregation in rabbit PRP ([4]; at 60 and 110 min): effectively inhibited | ADP-induced (50 uM) platelet aggregation in rabbit PRP ([4]; at 180 min): returned to the baseline level | inhibition of ADP-induced platelet aggregation over time [4, 14]: maintained up to 120 min during infusion | inhibition of ADP-induced human platelet aggregation [5]: dose-dependently inhibits; also recorded: comparable potency to APT102 | extension of elimination half-life compared to annexin V ([6]; 6 h vs 20 min): 18 fold | distribution phase half-life ([6]; rabbit, 0.40 mg/kg IV bolus): 30 min | time of maximal activity in the plasma after administration ([6]; rabbit, 0.40 mg/kg IV bolus, ADPase activity): 30 min | deaths, increased bleeding or gross side effects [7]: no deaths or increased bleeding or gross side effects | reduction of collagen deposition ([7]; Masson's trichrome 14 days post DVT induction): 33% | ACT vs control animals [8]: no differences | PT vs control animals [8]: no differences | aPTT vs control animals [8]: no differences | bleeding time vs control animals [8]: no differences | platelet counts vs control animals [8]: no differences | reduction of thrombus weight (IVC thrombosis; 1.0 mg/kg ip bolus daily for 2 days): 53% | reduction of thrombus weight (IVC thrombosis; high dose: 0.2 mg/kg ip bolus then 0.09 mg/kg/h sc for 48 h): 65% | reduction of thrombus weight (IVC thrombosis; low dose: 0.2 mg/kg ip bolus then 0.03 mg/kg/h sc for 48 h): 44% | prolongation of BT (IVC thrombosis; mouse, in vivo): did not cause detectable prolongation | prolongation of TCT (IVC thrombosis; mouse, in vivo): did not cause detectable prolongation | prolongation of aPTT (IVC thrombosis; mouse, in vivo): did not cause detectable prolongation | bleeding time (IVC thrombosis; mouse, in vivo, ip, 1 mg/kg): without increasing bleeding time | peak thrombin concentration [2]: mimicked | time to peak thrombin [2]: mimicked | inhibition of thrombin generation ([2]; ADP-activated human PRP): comparable inhibitory effects | inhibition of 20 μM ADP-induced ex vivo platelet aggregation (platelet aggregation; 1 h after dosing): 90% | inhibition of 20 μM ADP-induced ex vivo platelet aggregation (platelet aggregation; 6 h after dosing): 80% | inhibition of 20 μM ADP-induced ex vivo platelet aggregation (platelet aggregation; by 10 min after dosing): 95% | enzymatic kinetic parameters for ATP and ADP [9]: comparable to those of APT102 | elimination half-life (t1/2) [10]: 360 min | binding to thrombus [11]: bound to thrombus | signal in the non-injured control carotid [11]: no increased signal | APT402 plasma concentration over time [12]: maintained up to 120 min during infusion | thrombin generation (thrombin generation; at 60 and 110 min): effectively attenuated | thrombin generation (thrombin generation; at 180 min): returned to the baseline level | inhibition of thrombin generation over time (thrombin generation; [14]): maintained up to 120 min during infusion
